Experimental findings from publication PMC2764547 (Structure (London, England : 1993), 2009) are described below.

Common to all, as to assay type: biochemical, E. coli
Data set [1] addresses wild-type DegS (Escherichia coli, UniProt P0AEE3). The settings on record: OMP peptide present, 23 ± 1 °C; average of two or more determinations.
Data set [2] addresses H198P/K243D DegS (Escherichia coli, UniProt P0AEE3, H198P/K243D). The settings on record: saturating OMP peptide, 23 ± 1 °C; average of two or more determinations.
Data set [3] relates to RseA. As to the kind of experiment: Cleavage of sub-KM RseA by DegS variants without OMP peptide. The settings on record: no OMP peptide.
The subject of data set [4] is RseA. Description: Steady-state RseA cleavage.

Sequence of wild-type DegS (P0AEE3 27-355): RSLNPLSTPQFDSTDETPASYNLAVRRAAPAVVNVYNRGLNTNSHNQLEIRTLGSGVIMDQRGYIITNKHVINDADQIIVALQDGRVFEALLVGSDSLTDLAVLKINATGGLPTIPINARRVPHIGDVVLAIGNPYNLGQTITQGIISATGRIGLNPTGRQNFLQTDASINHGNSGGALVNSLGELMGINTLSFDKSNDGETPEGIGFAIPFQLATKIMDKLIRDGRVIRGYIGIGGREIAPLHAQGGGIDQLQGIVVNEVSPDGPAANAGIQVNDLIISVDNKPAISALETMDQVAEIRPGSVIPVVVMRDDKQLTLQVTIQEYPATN
Sequence of H198P/K243D DegS (P0AEE3 27-355 H198P/K243D limits assumed): as the sequence (P0AEE3 27-355) above, with H172P, K217D counted along it

Turning to DNRDGNVYYF, the Vmax is reported as 1.1 ± 0.2 s^-1 enz^-1 in data set [1] and 1.8 ± 0.2 s^-1 enz^-1 in data set [2].

B1: H198P: DegS variant with His^198 substituted by proline (protein)
chain: RSLNPLSTPQFDSTDETPASYNLAVRRAAPAVVNVYNRGLNTNSHNQLEIRTLGSGVIMDQRGYIITNKHVINDADQIIVALQDGRVFEALLVGSDSLTDLAVLKINATGGLPTIPINARRVPHIGDVVLAIGNPYNLGQTITQGIISATGRIGLNPTGRQNFLQTDASINPGNSGGALVNSLGELMGINTLSFDKSNDGETPEGIGFAIPFQLATKIMDKLIRDGRVIRGYIGIGGREIAPLHAQGGGIDQLQGIVVNEVSPDGPAANAGIQVNDLIISVDNKPAISALETMDQVAEIRPGSVIPVVVMRDDKQLTLQVTIQEYPATN
modifications: left off: His6, N-terminal, state not stated
Consider B1, for which the “RseA cleavage rate relative to wild-type DegS” value in data set [3] is given as 150 fold. Further, in data set [4] (KM of RseA, OMP peptide: None, 23 ± 1 °C, average of two or more determinations), the Km stood at 560 ± 40 µM. For the same molecule, the Vmax in data set [4] (OMP peptide: None, 23 ± 1 °C, average of two or more determinations) amounted to 1.4 ± 0.3 s^-1 enz^-1. Besides, the “activity with high RseA alone relative to best OMP-peptide activation” value in data set [4] (high concentrations of RseA, no OMP peptide) is on record as “about 60%”.

One may read the Km as the concentration of substrate that gives half-maximal velocity.
